Measurements: patent US20110110861A1 (WALTER AND ELIZA HALL INSTITUTE OF MEDICAL RESEARCH, published 2011)

B1: soluble FLAG-tagged mouse 5B6 (full ectodomain: stalk/hinge and CTLD) (receptor)
chain: ASISARQNSGLHHILDAQKMVWNHRGARQDYKDDDDKTREQQERLIQQDTALVNLTQWQRKYTLEYCQALLQRSLHSGTDASTGPVLLTSPQMVPQTLDSKETGSDCSPCPHNWIQNGKSCYYVFERWEMWNISKKSCLKEGASLFQIDSKEEMEFISSIGKLKGGNKYWVGVFQDGISGSWFWEDGSSPLSDLLPAERQRSAGQICGYLKDSTLISDKCDSWKYFICEKKAFGSCI
notes: also called soluble m5B6; soluble mouse 5B6
B2: soluble FLAG-tagged human 5B6 (full ectodomain: stalk/hinge and CTLD) (receptor)
chain: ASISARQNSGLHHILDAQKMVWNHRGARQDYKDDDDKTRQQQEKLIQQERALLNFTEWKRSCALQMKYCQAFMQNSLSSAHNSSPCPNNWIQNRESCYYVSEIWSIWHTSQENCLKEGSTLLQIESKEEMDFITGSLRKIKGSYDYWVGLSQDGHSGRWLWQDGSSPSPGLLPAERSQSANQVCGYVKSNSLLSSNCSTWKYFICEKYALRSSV
notes: Built like m1; also called soluble h5B6; soluble human 5B6

Tests used:
[1] = target: T1, human 5B6, full length, membrane bound on cells (human, UniProt Q6UXN8 1-241); experiment: flow cytometry on live 293T cells transiently transfected with full length untagged h5B6
T1 construct: also called h5B6; hCLEC9A
T1 sequence (Q6UXN8 whole entry): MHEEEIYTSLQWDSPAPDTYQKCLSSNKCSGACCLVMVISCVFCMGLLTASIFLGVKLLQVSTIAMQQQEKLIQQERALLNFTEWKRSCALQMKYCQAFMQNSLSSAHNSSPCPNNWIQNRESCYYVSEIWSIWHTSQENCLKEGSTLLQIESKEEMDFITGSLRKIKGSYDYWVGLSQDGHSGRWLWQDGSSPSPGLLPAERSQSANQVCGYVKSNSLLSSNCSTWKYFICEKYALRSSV
Description: (§1) To identify binding partners for the 5B6 molecule, the inventors generated the soluble FLAG-tagged m5B6 and h5B6, and a control soluble FLAG-tagged C-type lectin Cire. […] Thus, soluble 5B6 can interact with membrane bound 5B6 in a cross-species manner.
(§2) Binding assays were performed in binding buffer (PBS containing 0.2% BSA/and 0.02% sodium azide), on ice. Cells were washed 3 times with PBS to remove serum proteins, then resuspended in binding buffer. Cells were incubated with either (1) biotinylated soluble Clec9A and controls, and detected with SA-PE, or (2) soluble FLAG-tagged Clec9A, biotinylated anti-FLAG mAb 9H10, then detected with SA-PE. Live cells were gated on forward and side scatter, or by propidium iodide (PI) exclusion, whereas dead cells were gated on forward and side scatter, or by PI inclusion. Analysis of soluble Clec9A binding was performed by flow cytometry using a FACScan (Becton Dickinson).

[2] = target: T2, mouse 5B6, full length, membrane bound on cells (mouse); experiment: flow cytometry on live 293T cells transiently transfected with full length untagged m5B6
T2 construct: also called m5B6; mClec9A
T2 chain: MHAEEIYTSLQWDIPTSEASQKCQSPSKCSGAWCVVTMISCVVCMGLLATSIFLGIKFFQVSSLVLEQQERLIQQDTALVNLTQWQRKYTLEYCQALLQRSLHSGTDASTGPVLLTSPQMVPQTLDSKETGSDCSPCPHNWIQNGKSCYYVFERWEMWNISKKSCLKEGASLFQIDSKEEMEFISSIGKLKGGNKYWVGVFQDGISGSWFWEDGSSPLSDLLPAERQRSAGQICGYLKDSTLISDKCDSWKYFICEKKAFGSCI
Description: as §1, §2

Binder | binding result [1] | binding result [2]
B1 | binds | binds
B2 | binds | binds
